Experimental data published in patent US20030215458A1 (published 2003).

Each binder was assayed against T1, mouse B6 class I antigens (D^b or K^b molecules on the surface of RMA-S cells) (mouse, UniProt P01887 21-119) (assay: RMA-S cells incubated with peptide (25 ug/ml), stained with FITC anti-D^b or anti-K^b, flow cytometry).
T1 sequence (P01887 21-119): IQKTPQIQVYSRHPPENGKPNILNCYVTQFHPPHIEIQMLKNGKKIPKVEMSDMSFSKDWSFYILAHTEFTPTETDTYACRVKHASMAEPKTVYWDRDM

Row | Binder | Binding Affinity to Mouse MHC Class I (% increase of D^b or K^b on RMA-S cells) [%]
1 | NQMNLGATL [WT1 peptide p239-247 (NQMNLGATL)] | 1
2 | GCNKRYFKL [WT1 peptide p329-337 (GCNKRYFKL)] | 1.2
3 | YSSDNLYQM [WT1 peptide p221-229 (YSSDNLYQM)] | 0.8
4 | ALLPAVPSL (also called human p10-18) [WT1 peptide p10-18 human (ALLPAVPSL)] | 2.2
5 | NLYQMTSQL [WT1 peptide p225-233 (NLYQMTSQL)] | 5.8
6 | QMTSQLECM [WT1 peptide p228-236 (QMTSQLECM)] | 1.2
7 | CMTWNQMNL [WT1 peptide p235-243 (CMTWNQMNL)] | 33.6
8 | SCLESQPAI (also called human p136-144) [WT1 peptide p136-144 human (SCLESQPAI)] | 52

Each binder was assayed against T1, mouse B6 class I antigens (D^b or K^b …) (assay: binding of 9-mer peptides within p117-139 to mouse B6 (H-2^b) class I; RMA-S cell assay, flow cytometry).

Row | Binder | Binding Affinity to Mouse MHC Class I (%)
9 | MFPNAPYLP [WT1 peptide P127-135 (MFPNAPYLP)] | 2
10 | PNAPYLPSC [WT1 peptide P129-137 (PNAPYLPSC)] | 1
11 | QARMFPNA [WT1 peptide P124-132 (printed QARMFPNA)] | 1
12 | ARMFPNAPY [WT1 peptide P125-133 (ARMFPNAPY)] | 1
13 | SSGQARMFP [WT1 peptide P121-129 (SSGQARMFP)] | 1
14 | ASSGQARMF [WT1 peptide P120-128 (ASSGQARMF)] | 1
15 | SQASSGQAR [WT1 peptide P118-126 (SQASSGQAR)] | 2
16 | FPNAPYLPS [WT1 peptide P128-136 (FPNAPYLPS)] | 1
17 | PSQASSGQA [WT1 peptide P117-125 (PSQASSGQA)] | 2
18 | APYLPSCLE [WT1 peptide P131-139 (APYLPSCLE)] | 1
19 | QASSGQARM [WT1 peptide P119-127 (QASSGQARM)] | 2
20 | NAPYLPSCL [WT1 peptide P130-138 (NAPYLPSCL)] | 79
